Reference: patent publication US20240393292A1, “ALLERGY ANTIGEN AND EPITOPE THEREOF” (HOYU CO., LTD., priority 2019, published 2024)
One block for each molecule: values may come before it.

Tested on: IgE antibody in the serum of a wheat-allergic patient
Experiment: Immunoblotting of two-dimensional electrophoresis pattern of wheat proteins with patient serum
Type: binding, human
Conditions: immunoblot of 2D electrophoresis; compared with serum of non-wheat-allergic subject
Protocol: Identification of antigens by immunoblotting was carried out by taking all the steps up to the step of “Second-dimensional SDS-PAGE” as described above in Example 1, followed by the steps of “Transfer to membrane”, “Immunoblotting” and “Analysis” as described below.
Transfer to membrane was done using the following transfer system and transfer buffer. • Transfer system: XCell SureLock Mini-Cell and XCell II Blot Module (produced by Life Technologies) • Transfer buffer: NuPAGE Transfer Buffer (×20) (produced by Life Technologies), used in a form diluted […] with milliQ water. […]
The immunoblots obtained with the serum from the wheat-allergic patient were compared with those obtained with the control serum from the non-wheat-allergic subject. For protein present in wheat, in immunoblotting using the serum from the wheat-allergic patient, 16 spots were detected (FIG. 2), which are different from the spots detected when the serum of the non-wheat-allergic subject was used and different from those of the known wheat allergen proteins. […]

specific binding of IgE antibody in serum of wheat-allergic patient to protein spot: binding to IgE antibodies was confirmed
B1: Gamma-gliadin (protein, listed as Triticum aestivum)
chain: MKIFMVFALLVASTTITTATAQLDPRIHDQERPQQSFLQQQPLIQQQPYPPQEPQQPLFPQKEPQQPFPLQQPQYQQQQPYPQQPLPQEQLPQQHLFPQQPPQQQFPQQMPLPHQQQTFPQQQQQQQQQEQLPQQLPQFPQQQPFSQYQQPLTQQPYSQEQPLPQQQPSVEEKQQLNLCKEFLLQQCNPEEKLSLLQSVIPFLRPKTSQQNSCQLKRLQCCRQLAHISEPSRCPAIHNIVHAIVMQQQHVDRGFGQPQPQQLGQEMPMQPQHQLGQHSILPQQLAQYKLVRLLVIQTLPMLCNVHVPSDCYTITAPFGSMTAYNGGQ
modifications: posttranslational modification
notes: same protein as spot 16, differing posttranslational modification

specific binding of IgE antibody in serum of wheat-allergic patient to protein spot: binding to IgE antibodies was confirmed
B2: Globulin 3 (protein, listed as Triticum aestivum)
chain: MATRARVTIPLLFLLGTSLLFAAAVSASHDEEEDRRGGRSLQQCVQRCQQDRPRYSHARCVQECRDDQQQHGRHEQEEQGRGHGRHGEGEREEEQGRGRGRHGQGEREEEQGRGRGRRGEGERDEEHGDGRRPYVFGPRSFRRIIRSDHGFVKALRPFDEVSRLLRGIRNYRVAIMEVNPRAFVVPGLTDADGVGYVAQGEGVLTVIENGEKRSYTVRQGDVIVAPAGSIMHLANTDGRRKLVIAKILHTISVPGKFQYFSAKPLLASLSKRVLTAALKTSDERLGSLLGSRQGKEEEEKSISIVRASEEQLRELRRQASEGDQGHHWPLPPFRGDSRDTFNLLEQRPKIANRHGRLYEADARSFHALAQHDVRVAVANITPGSMTAPYLNTQSFKLAVVLEGEGEVEIVCPHLGRDSERREQEHGKGRWRSEEEEDDRRQQRRRGSGSESEEEQDQQRYETVRARVSRGSAFVVPPGHPVVEIASSRGSSNLQVVCFEINAERNERVWLAGRNNVIAKLDDPAQELTFGRPAREVQEVFRAKDQQDEGFVAGPEQQQEHERGDRRRGDRGRGDEAVEAFLRMATAAL
modifications: posttranslational modification
notes: same protein as spot 12, differing posttranslational modification
